Measured values as given in patent US20240092890A1 (JUNTENDO EDUCATIONAL FOUNDATION, published 2024).

Key:
[1] = target: T1, protein having an Fc region and a His-tag added to the N-terminus of SEQ ID NO: 1; experiment: BLItz biolayer interferometry, Fc/His-SEQ ID NO: 1 protein on the biosensor
T1 construct: also called mutant CALR protein (antigen of the BLItz measurement); not shown: Fc region and His-tag at the N-terminus
T1 chain: RRMMRTKMRMRRM
In short: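 The Fc/His-tagged protein was loaded at 0.1 mg/mL onto Anti-Penta-HIS or Protein A biosensors. Antibodies were run at 500, 100 and 50 nM by biolayer interferometry, and the dissociation constant was derived from these binding curves.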

[2] = target: T2, Ins 5 type mutant CALR protein on UT-7/TPO CALR Ins 5 cells (UniProt P27797 18-417); experiment: cell-based or functional assay
T2 sequence (looked up): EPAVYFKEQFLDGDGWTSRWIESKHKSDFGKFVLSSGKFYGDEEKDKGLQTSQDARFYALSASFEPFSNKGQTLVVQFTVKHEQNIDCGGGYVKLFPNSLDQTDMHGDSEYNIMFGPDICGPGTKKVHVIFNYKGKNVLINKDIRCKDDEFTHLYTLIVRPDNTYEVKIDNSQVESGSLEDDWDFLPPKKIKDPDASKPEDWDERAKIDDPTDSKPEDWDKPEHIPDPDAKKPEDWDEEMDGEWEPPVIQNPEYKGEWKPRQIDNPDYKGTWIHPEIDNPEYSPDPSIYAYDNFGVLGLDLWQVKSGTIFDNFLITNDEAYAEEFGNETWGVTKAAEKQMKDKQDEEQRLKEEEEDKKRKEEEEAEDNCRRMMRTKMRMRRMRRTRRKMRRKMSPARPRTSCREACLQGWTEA

- Kd [1]: 6.06 nM
B1: Antibody 114 (bispecific antibody)
chain 1: DIQMTQSPSSLSASVGDRVTITCLASEDIYSYLAWYQQKPGKAPKLLIFAANRLQSGVPSRFSGSGSGTDFTLTISSLQPEDFATYYCLQGSKFPYTFGPGTKVDIKGGGGSGGGGSGGGGSQVQLVQSGAEVKKPGSSVKVSCKASGYTFTRNFIHWIRQAPGQGLEWIGWIFPGDADTEYNQKFSGRATITADKSTSTAYMELSSLRSEDTAVYYCARGNYNYEYFDYWGQGTMVTVSSGGGGSGGGGSGGGGSDKTHTCPPCPAPEAAGGPSVFLFPPKPKDTLMISRTPEVTCVVVDVSHEDPEVKFNWYVDGVEVHNAKTKPREEQYNSTYRVVSVLTVLHQDWLNGKEYKCKVSNKALPAPIEKTISKAKGQPREPQVCTLPPSREEMTKNQVSLSCAVKGFYPSDIAVEWESNGQPENNYKTTPPVLDSDGSFFLVSKLTVDKSRWQQGNVFSCSVMHEALHNHYTQKSLSLSPGK
chain 2: not shown
- EC50 of cytotoxic activity (pM) [2]: 790 pM
